# Source: patent publication US7943295B2, “Screening and therapeutic method for NSCLC targeting CDCA1-KNTC2 complex” (Oncotherapy Science, Inc., priority 2005, dated 2011)
# Entries after “also recorded” stand apart in the source; their conditions may differ. Where no end group is shown, it is not given here.
# B1: CDCA1 277-367: C-terminal FLAG-tagged deletion-construct of CDCA1 (protein)
# chain: EIYGDSVDCLPSCQLEVQLYQKKIQDLSDNREKLASILKESLNLEDQIESDESELKKLKTEENSFKRLMIVKKEKLATAQFKINKKHEDVK
# modifications: left off: small tags and cut ends
# B2: CDCA1 200-464: C-terminal FLAG-tagged deletion-construct of CDCA1 lacking the N-terminal portion; dominant-negative fragment (protein)
# chain: QKTIVLQEGNSQKKSNISEKTKRLNELKLLVVSLKEIQESLKTKIVDSPEKLKNYKEKMKDTVQKLKNARQEVVEKYEIYGDSVDCLPSCQLEVQLYQKKIQDLSDNREKLASILKESLNLEDQIESDESELKKLKTEENSFKRLMIVKKEKLATAQFKINKKHEDVKQYKRTVIEDCNKVQEKRGAVYERVTTINQEIQKIKLGIQQLKDAAEREKLKSQEIFLNLKTALEKYHDGIEKAAEDSYAKIDEKTAELKRKMFKMST
# modifications: left off: small tags and cut ends
# notes: C-terminal FLAG-tagged deletion-construct of CDCA1 lacking the N-terminal portion; dominant-negative fragment
# B3: CDCA11-148: C-terminal FLAG-tagged deletion-construct of CDCA1 (protein)
# chain: METLSFPRYNVAEIVIHIRNKILTGADGKNLTKNDLYPNPKPEVLHMIYMRALQIVYGIRLEHFYMMPVNSEVMYPHLMEGFLPFSNLVTHLDSFLPICRVNDFETADILCPKAKRTSRFLSGIINFIHFREACRETYMEFLWQYKSS
# modifications: left off: small tags and cut ends
# notes: C-terminal FLAG-tagged deletion-construct of CDCA1
# B4: CDCA1 149-306: C-terminal FLAG-tagged deletion-construct of CDCA1, served as a control (protein)
# chain: ADKMQQLNAAHQEALMKLERLDSVPVEEQEEFKQLSDGIQELQQSLNQDFHQKTIVLQEGNSQKKSNISEKTKRLNELKLLVVSLKEIQESLKTKIVDSPEKLKNYKEKMKDTVQKLKNARQEVVEKYEIYGDSVDCLPSCQLEVQLYQKKIQDLSDN
# modifications: left off: small tags and cut ends
# notes: C-terminal FLAG-tagged deletion-construct of CDCA1, served as a control
# Columns and labels:
# endogenous KNTC2 = target: T1, endogenous KNTC2 (Homo sapiens, UniProt O14777); assay: Immunoprecipitation of FLAG-tagged CDCA1 deletion-constructs in LC319 cells; type: binding; conditions: LC319 cells transfected with deletion-construct
# T1 construct: endogenous in cells; host or cells: LC319
# T1 sequence (O14777 1-642): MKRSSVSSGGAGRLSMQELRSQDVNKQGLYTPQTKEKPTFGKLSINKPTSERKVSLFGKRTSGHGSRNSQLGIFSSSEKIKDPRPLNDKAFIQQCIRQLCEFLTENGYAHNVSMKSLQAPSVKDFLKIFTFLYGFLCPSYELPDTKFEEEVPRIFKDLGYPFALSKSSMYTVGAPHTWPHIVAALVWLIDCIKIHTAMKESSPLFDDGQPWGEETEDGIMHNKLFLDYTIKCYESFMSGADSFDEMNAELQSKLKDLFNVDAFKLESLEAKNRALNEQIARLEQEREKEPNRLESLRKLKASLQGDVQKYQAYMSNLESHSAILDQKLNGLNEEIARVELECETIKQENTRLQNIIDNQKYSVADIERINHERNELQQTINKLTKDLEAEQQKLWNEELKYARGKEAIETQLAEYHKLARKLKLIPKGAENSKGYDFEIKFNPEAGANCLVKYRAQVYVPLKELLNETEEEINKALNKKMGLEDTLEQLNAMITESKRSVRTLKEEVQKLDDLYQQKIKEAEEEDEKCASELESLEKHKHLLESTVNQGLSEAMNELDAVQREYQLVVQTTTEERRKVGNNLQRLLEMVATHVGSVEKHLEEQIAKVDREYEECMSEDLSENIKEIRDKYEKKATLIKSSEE
# Procedure: (g) Identification of the KNTC2-binding region in CDCA1: Eleven deletion-constructs of CDCA1 (CDCA1 200-464, CDCA1 149-464, CDCA11-348, CDCA11-148, CDCA1 149-306, CDCA1 306-464, CDCA1 319-464, CDCA1 277-416, CDCA1 277-367, CDCA1 319-416, and CDCA1 319-367) were cloned into appropriate sites of C-terminal FLAG-tagged-pCAGGS vector. Cell extracts from lung-cancer cell line LC319, transfected with plasmids expressing eleven deletion-constructs of CDCA1 were pre-cleared by incubation at 4° C. for 1 hour with 100 μl of protein G-agarose beads in final volumes of 2 ml of immunoprecipitation buffer (0.5% NP-40, 50 mM Tris-HCl, 150 mM NaCl) in the presence of proteinase inhibitor. After centrifugation at 1,000 rpm for 5 min at 4° C., the supernatants were incubated at 4° C. with anti-FLAG M2 agarose for 2 hours. After the beads were collected from each sample by centrifugation at 5,000 rpm for 2 min and washed six times with 1 ml of immunoprecipitation buffer, the washed beads were re-suspended in 50 μl of Laemmli sample buffer and boiled for 5 min before the proteins were separated on 10% SDS PAGE gels. Immunoblot was performed using KNTC2 polyclonal antibody (Abcom, Inc.) and anti-FLAG M2 monoclonal antibody respectively (Sigma-Aldrich Co.).
# [1] = Mouse model: body weight and food intake; type: in vivo, BALB/c nude mice; conditions: intratumoral 0.15 μmol/body/day for 7 weeks, among three treatment groups, data not shown
# Procedure: (n) Mouse model: The animal experiments were conducted according to the institutional and national guidelines for the care and use of laboratory animals, and approved by the institutional animal use committee. 1×10^6 of A549 cells were subcutaneously implanted into the right shoulder of 6-week-old male BALB/c nude mice (nu/nu). Two weeks after the injection, the mice with tumor (30 mm^3 volume on average) were randomized into three groups and intratumorly administered with 11R-CDCA1398-416 peptides (0.15 μmol/body/day), scramble (0.15 μmol/body/day), or PBS (control) for 7 weeks. Tumor volume was measured once a day by using a caliper and applying the data to the formula (volume=0.52×[width]^2×[length]) to calculate the volume of a spheroid.
# MRC5 cells = assay: MTT assay, 11R-peptides on normal lung fibroblasts; type: cell-based; conditions: normal human lung fibroblast derived MRC5 cells, hardly detectable CDCA1 and KNTC2
# Procedure: (m) Effect of 11R-peptides on lung-cancer cell growth: LC319 and […] and normal human lung fibroblast derived MRC5 cells were incubated with 11R-peptides at the concentration of 5 μM, 10 μM, and 20 μM for seven days. The medium was exchanged every other day at the appropriate concentrations of each peptide and the viability of cells was evaluated by MTT assay at 7 days after the treatment; briefly, cell-counting kit-8 solution (DOJINDO, Kumamoto, Japan) was added to each dish at a concentration of 1/10 volume, and the plates were incubated at 37° C. for additional 4 hours. Absorbance was then measured at 490 nm, and at 630 nm as a reference, with a Microplate Reader 550 (BIO-RAD). Flow-cytometric analysis was performed as described previously (Suzuki, C. et al. Cancer Res. 65, 11314-11325 (2005).).
# CDCA1-KNTC2 complex = target: T2, CDCA1-KNTC2 complex (Homo sapiens, UniProt O14777); assay: Immunoprecipitation: suppression of CDCA1-KNTC2 complex formation in LC319 cells; type: binding; conditions: LC319 cells co-transfected with CDCA1 1-464 and the fragment
# T2 construct: full length) and endogenous KNTC2; expressed in transfected cells; host or cells: LC319
# T2 sequence (O14777 1-642): T1 sequence (O14777 1-642)
# Procedure: (f) Identification of CDCA1-associated Proteins: Cell extracts from lung-cancer cell line LC319 were pre-cleared by incubation at 4° C. for 1 hour with 50 μl of protein A and G-agarose beads, in final volumes of 2 ml of immunoprecipitation buffer (0.5% NP-40, 50 mM Tris-HCl, 150 mM NaCl) in the presence of proteinase inhibitor. After centrifugation at 1,000 rpm for 5 min at 4° C., the supernatants were incubated at 4° C. with anti-CDCA1 polyclonal antibody, anti-KNTC2 polyclonal antibody, or normal rabbit IgG for 2 hours. […] The nucleotide sequence of each cDNA clone was determined with an ABI Prism 3700 DNA sequencer (Applied Biosystems, Foster City, Calif.), using T3, T7, or synthetic oligonucleotide primers according to the manufacturer's instructions. […]
# Since the band of endogenous CDCA1 immunoprecipitated with anti-CDCA1/KNTC2 antibody overlapped with IgG-heavy chain bands, it was difficult to detect the interaction between endogenous CDCA1 and KNTC2. […] Interaction of only CDCA1 1-464 (full length) or CDCA1 200-464 with endogenous KNTC2 was detected by immunoprecipitation using anti-KNTC2 polyclonal antibody (FIG. 5A; left top panel; black and white arrows). […]
# LC319 cells = assay: MTT assay after transfection of dominant-negative CDCA1 fragment; type: cell-based, human; conditions: LC319 transfected with fragment plasmid; P=0.0026 CDCA1 200-464 vs CDCA1 149-306
molecule,measurement,setting,value
CDCA1 319-367: C-terminal FLAG-tagged deletion-construct of CDCA1 (NLEDQIESDESELKKLKTEENSFKRLMIVKKEKLATAQFKINKKHEDVK-{FLAG tag}),interaction with endogenous KNTC2,endogenous KNTC2,unable to interact
RRRRRRRRRRRGGGIQKIKLGIQQLKDAAEREK [11R-CDCA1 398-416],body weight,[1],no difference
same,food intake,[1],no difference
same,cell viability (MTT),MRC5 cells,no off-target effect
B1,interaction with endogenous KNTC2,endogenous KNTC2,unable to interact
B2,complex formation between exogenous CDCA1 (full length) and endogenous KNTC2,CDCA1-KNTC2 complex,reduced complex formation; also recorded: reduction of the complex formation
same,interaction with endogenous KNTC2,endogenous KNTC2,strongest affinity; also recorded: Interaction
same,cell viability (MTT),LC319 cells,significant decreases; also recorded: dominant-negative effect
B3,interaction with endogenous KNTC2,endogenous KNTC2,unable to interact; also recorded: did not retain any appreciable ability to interact
B4,interaction with endogenous KNTC2,endogenous KNTC2,unable to interact
same,interaction with endogenous KNTC2,endogenous KNTC2; listed as CDCA1149-306,did not retain any appreciable ability to interact
